Here are results for 4 sequences from the Immune Epitope Database (IEDB).

Among the targets are HLA-A*02:01; HLA-A*02:02; HLA-A*02:03; HLA-A*02:06; HLA-A*68:02.
What all share (test): IEDB peptide-MHC binding, purified MHC/competitive/radioactivity; filed as Kd, often an IC50 or EC50 that approximates it; ≥ and ≤ were set here for values at or beyond the usual limits of such assays
The mark [1] stands for this setting: source organism: Guanarito virus strain INH-95551.
Setting [2] is: source organism: Lassa virus Josiah.
The mark [3] stands for this setting: source organism: Pichinde virus strain Munchique.
Where [4] appears, read: source organism: Whitewater Arroyo virus strain AV9310135.

Some results are limits rather than exact numbers.

On to GTTSLFLHL, for which the Kd with HLA-A*02:01 (setting [1]) was determined as 49 nM; with HLA-A*02:02 (setting [1]), 57 nM; in the assay with HLA-A*02:03 (setting [1]), 750 nM; with HLA-A*02:06 (setting [1]) it was 5 nM; in the assay with HLA-A*68:02 (setting [1]), 5 nM.

Consider YLISIFLHL, for which the Kd worked out at 173 nM with HLA-A*02:02 (setting [2]), 11 nM in the assay with HLA-A*02:03 (setting [2]) and 10 nM with HLA-A*02:06 (setting [2]).

As to YTITVFLHL, the Kd with HLA-A*02:01 (setting [3]) was 10 nM; in the assay with HLA-A*02:02 (setting [3]), 128 nM; in the assay with HLA-A*02:03 (setting [3]), 14800 nM; with HLA-A*02:06 (setting [3]), 7 nM; in the assay with HLA-A*68:02 (setting [3]), 5 nM.

YVSSIFLHL: the Kd with HLA-A*02:02 (setting [4]) is at most 1 nM; with HLA-A*02:03 (setting [4]) it was 10 nM; with HLA-A*02:06 (setting [4]) it was 15 nM; with HLA-A*68:02 (setting [4]), at most 1 nM.
